The text below walks through data of publication PMC4039143, “Polyubiquitylation of AMF requires cooperation between the gp78 and TRIM25 ubiquitin ligases” (Oncotarget, 2013).

The target in this test is T1, His-tagged AMF expressed in and purified from E. coli (human, UniProt P06744 1-558).
T1 construct: autocrine motility factor (AMF) / phosphoglucose isomerase (PGI); the E. coli expression construct is not described; also called his-AMF; PGI; source: E. coli (BL21), purified (Ni-NTA agarose, PD-10 desalting); not shown: His, N-terminal, kept
In words: pull-down; GST fusions held on glutathione-agarose and washed; incubated with purified his-AMF or TRIM25 in buffer D (50 mM Tris/HCl pH 7.5, 100 mM NaCl, 1 mM DTT, 0.1% Tween20), 3 hr at 4 °C; retained protein detected by immunoblot. The note with it: both partners purified. In general terms: A western blot detects proteins with antibodies after separation by electrophoresis.

B1: GST fusion bearing the entire C-terminal (cytoplasmic) domain of gp78 (domain or fragment, human, UniProt Q9UKV5 309-643, looked up)
chain: IRRHKNYLRVVGNMEARFAVATPEELAVNNDDCAICWDSMQAARKLPCGHLFHNSCLRSWLEQDTSCPTCRMSLNIADNNRVREEHQGENLDENLVPVAAAEGRPRLNQHNHFFHFDGSRIASWLPSFSVEVMHTTNILGITQASNSQLNAMAHQIQEMFPQVPYHLVLQDLQLTRSVEITTDNILEGRIQVPFPTQRSDSIRPALNSPVERPSSDQEEGETSAQTERVPLDLSPRLEETLDFGEVEVEPSEVEDFEARGSRFSKSADERQRMLVQRKDELLQQARKRFLNKSSEDDAASESFLPSEGASSDPVTLRRRMLAAAAERRLQKQQTS
notes: Expression vector provided by A Weissman; also called GST-gp78C; gp78C; source: E. coli (BL21), lysate applied to glutathione-agarose and washed; also purified on glutathione-agarose
As for B1, the binding result is listed as “binds”.
